This note sets out measurements from US20210356479A1 (BLOODWORKS, published 2021).

Assay [1] concerns the target T1, human Kell glycoprotein, K form (KEL1) (human, UniProt P23276 1-732).
T1 construct: whole, on cells; On human K/K or K+k+ RBCs and on RBCs of K transgenic mice; also called K antigen; K variant
T1 sequence (looked up): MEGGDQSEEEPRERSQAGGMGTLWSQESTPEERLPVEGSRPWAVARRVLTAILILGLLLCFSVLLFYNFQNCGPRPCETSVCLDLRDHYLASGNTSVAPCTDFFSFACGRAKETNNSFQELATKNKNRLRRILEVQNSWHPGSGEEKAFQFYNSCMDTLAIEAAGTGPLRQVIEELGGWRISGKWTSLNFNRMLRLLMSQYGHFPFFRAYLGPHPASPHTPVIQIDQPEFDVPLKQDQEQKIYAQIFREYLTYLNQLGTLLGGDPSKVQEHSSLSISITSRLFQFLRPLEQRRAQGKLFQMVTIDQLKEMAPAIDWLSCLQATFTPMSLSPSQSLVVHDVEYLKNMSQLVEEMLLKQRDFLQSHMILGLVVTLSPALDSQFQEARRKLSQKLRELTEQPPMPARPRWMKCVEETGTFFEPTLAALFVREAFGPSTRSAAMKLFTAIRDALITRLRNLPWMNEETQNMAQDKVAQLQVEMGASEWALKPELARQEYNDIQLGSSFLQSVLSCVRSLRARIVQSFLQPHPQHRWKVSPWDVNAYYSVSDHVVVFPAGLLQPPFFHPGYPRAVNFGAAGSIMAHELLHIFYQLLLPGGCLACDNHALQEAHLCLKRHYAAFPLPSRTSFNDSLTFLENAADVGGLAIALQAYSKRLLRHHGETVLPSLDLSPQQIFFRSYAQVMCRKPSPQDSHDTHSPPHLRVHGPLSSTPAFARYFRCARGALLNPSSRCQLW
Nature of the assay: flow cytometry on K transgenic mouse RBCs.

The target of assay [2] is T2, human Kell glycoprotein, k form (KEL2) (human, UniProt P23276 1-732).
T2 construct: whole, on cells; On human k/k or K-k+ RBCs; also called k antigen
T2 sequence (looked up): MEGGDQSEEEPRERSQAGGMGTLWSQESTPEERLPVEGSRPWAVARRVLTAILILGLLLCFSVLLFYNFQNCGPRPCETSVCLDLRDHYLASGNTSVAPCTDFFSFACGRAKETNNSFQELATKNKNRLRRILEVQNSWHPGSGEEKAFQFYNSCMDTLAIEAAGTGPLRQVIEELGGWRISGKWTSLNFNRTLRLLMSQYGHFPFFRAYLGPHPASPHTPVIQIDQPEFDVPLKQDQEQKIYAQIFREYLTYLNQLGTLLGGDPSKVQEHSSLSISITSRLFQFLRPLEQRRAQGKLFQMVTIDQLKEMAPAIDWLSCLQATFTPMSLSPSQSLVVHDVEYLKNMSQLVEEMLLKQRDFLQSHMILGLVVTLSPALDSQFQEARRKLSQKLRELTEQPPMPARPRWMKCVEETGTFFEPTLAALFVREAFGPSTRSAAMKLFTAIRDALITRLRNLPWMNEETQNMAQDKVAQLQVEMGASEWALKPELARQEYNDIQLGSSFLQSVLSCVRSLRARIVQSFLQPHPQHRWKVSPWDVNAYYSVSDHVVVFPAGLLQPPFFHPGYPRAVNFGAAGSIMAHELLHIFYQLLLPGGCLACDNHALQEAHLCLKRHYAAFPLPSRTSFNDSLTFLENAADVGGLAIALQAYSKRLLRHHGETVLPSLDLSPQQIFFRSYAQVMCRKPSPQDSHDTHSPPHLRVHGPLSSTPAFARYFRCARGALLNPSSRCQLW
The assay is described as follows: flow cytometry, indirect immunofluorescence on k/k human RBCs. The method, then: (§1) The specificities of the antibodies were determined to be: PUMA ½ (KEL1 or K), PUMA 3 (a common Kell epitope, PUMA 4 (KEL4 or Kp^b). Flow cytometry was utilized to test antibody specificity by indirect immunofluorescence, using the monocolonal antibodies as the primary reagent and a goat-anti-mouse antibody (conjugated to allophycocyanin) as a secondary antibody. Different target cells expressing different Kell variants were used to determine specificity. Targets included RBCs that phenotyped as homozygous for the 3 main antithetical antigens in the Kell system, K/K, k/k, Kp^{b/}Kp^b, Kp^{a/}Kp^a. Js^{b/}J^b, Js^{a/}Js^a. Differential binding to such tarets tests specificity. In the case of PUMA ½, binding was only observed when K was present but not on k/k RBCs. In the case of PUMA 3, binding was observed on all RBCs regardless of phenotype for K/k, Kp^{a/}Kp^{b,} or Js^{a/}Js^b, thus indicating a common epitope outside these systems. However, PUMA 3 bound to only KELL glycoprotein transgenic murine RBCs and not wild-type murine RBCs; thus, the epitope recognized by PUMA 3 is on the KELL molecule, but not K/k, Kp^{a/}Kp^b, or Js^{a/}Js^b. For PUMA 4, binding was only observed when Kp^b was present but not on Kp^{a/}Kp^a RBCs.

The target of assay [3] is T3, human Kell glycoprotein, Js^b form (KEL7) (human, UniProt P23276 1-732).
T3 construct: whole, on cells; On human Js^b/Js^b RBCs
T3 sequence (looked up): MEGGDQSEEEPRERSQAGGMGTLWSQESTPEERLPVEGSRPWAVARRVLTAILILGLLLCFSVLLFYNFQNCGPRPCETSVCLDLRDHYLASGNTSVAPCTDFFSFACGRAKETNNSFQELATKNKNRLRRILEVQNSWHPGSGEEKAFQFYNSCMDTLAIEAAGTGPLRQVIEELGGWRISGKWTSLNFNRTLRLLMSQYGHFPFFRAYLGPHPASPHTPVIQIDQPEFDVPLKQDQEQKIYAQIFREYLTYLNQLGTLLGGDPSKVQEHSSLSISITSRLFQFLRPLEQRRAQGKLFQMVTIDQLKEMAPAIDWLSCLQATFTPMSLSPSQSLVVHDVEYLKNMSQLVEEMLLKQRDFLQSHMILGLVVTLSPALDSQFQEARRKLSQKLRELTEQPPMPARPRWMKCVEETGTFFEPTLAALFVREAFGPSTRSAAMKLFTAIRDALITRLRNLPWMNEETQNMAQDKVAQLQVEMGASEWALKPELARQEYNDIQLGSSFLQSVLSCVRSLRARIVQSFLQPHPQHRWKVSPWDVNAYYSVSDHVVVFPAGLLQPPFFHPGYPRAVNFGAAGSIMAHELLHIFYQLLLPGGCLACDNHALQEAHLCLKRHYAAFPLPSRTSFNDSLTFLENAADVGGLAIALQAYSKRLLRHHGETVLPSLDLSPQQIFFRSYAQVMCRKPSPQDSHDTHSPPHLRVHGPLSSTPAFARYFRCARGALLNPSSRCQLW
The assay is described as follows: flow cytometry, indirect immunofluorescence on Js^b/Js^b human RBCs. On the procedure: as §1

Assay [4] has as its target T4, human Kell glycoprotein, Kp^b form (KEL4) (human, UniProt P23276 1-732).
T4 construct: whole, on cells; On human Kp^b/Kp^b RBCs
T4 sequence (looked up): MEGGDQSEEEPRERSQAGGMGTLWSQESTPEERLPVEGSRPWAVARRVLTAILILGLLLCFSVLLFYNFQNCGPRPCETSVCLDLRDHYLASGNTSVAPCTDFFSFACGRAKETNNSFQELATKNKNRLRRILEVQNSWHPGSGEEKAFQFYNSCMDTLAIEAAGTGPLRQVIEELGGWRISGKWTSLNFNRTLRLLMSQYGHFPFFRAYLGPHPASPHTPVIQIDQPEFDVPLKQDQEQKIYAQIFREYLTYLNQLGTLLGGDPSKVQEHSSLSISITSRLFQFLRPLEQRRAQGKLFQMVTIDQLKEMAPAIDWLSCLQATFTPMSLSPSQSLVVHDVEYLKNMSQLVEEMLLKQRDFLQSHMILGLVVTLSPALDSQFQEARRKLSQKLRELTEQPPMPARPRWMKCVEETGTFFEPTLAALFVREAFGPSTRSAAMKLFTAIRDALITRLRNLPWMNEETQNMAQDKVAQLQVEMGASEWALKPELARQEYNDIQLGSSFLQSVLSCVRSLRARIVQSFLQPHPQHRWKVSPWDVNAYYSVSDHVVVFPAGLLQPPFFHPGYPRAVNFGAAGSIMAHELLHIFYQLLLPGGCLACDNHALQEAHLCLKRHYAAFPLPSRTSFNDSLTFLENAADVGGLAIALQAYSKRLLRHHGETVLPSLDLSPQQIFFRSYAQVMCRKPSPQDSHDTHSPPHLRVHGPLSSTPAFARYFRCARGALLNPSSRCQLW
Nature of the assay: flow cytometry, indirect immunofluorescence on Kp^b/Kp^b human RBCs. On the procedure:
as §1

For assay [5], the target named is T1, human Kell glycoprotein, K form (KEL1). The assay is described as follows: flow cytometry, indirect immunofluorescence on K/K human RBCs. On the procedure:
as §1

B1: PUMA 1 monoclonal anti-K antibody (antibody, mouse IgG2a, V domains shown)
VH: EVQLQQSGPELVKPGASVKMSCKASGYTFTDYYMKWVKQSHGKSLEWIGDLNPNNGDTFYNQKFKGKATLTVDKSSSTAYIQLNSLTSEDSAVYYCAREAGSSFGSSCNYWGQGTTLTVS
VL: SVVMTQTPKFLLVSAGDRVTITCKASQTVSKDVAWYQQQPGQSPKLLIYYASNRYTGVPDRFTGSGYGTDFTFTISTVQAEDLAVYFCQQDYSSPYTFGGGTKLEIK
notes: also called PUMA 2; PUMA ½
Take B1: the binding result in assay [1] is given as “binds”; in assay [2], “no binding”.

B2: PUMA 3 monoclonal antibody (antibody, V domains shown)
VH: QVQLKESGPGLLAPSQSLSITCTVSGFSLTSYGVYWVRQPPGKGLEWLGIIWGDGSTNYQSVLRSRLSITKDDSKSQVFLKLNSLQTDDTATYYCAKRGDYDVAYWGQGTLVTVSA
VL: DIVLTQSPASLAVSLGQRAIISCKASQTVSEVGTSLMHWYQQRPGQQPKLLIYRTSNLEAGVPTRFSGSGSRTDFTLNIHPVEEDDAATYYCQQSREFPWTFGGGTRLEIK
notes: Mouse monoclonal from hybridoma
With B2, the binding result in assay [3], in assay [4], in assay [5] and in assay [2] was “binds” each time.
